Results from the supplement of paper PMC7877785.
± gives the uncertainty stated by the source.

Test: self-splicing fitness, log relative to wild type (ln ratio); higher = more splicing; Tetrahymena group I intron in knt gene, E. coli kanamycin selection, DiMSum; sequences stand for … in CUCUCU…GGAGGGAAAAGUUAUCAGGCAUGCACCUGGUAGCUAGUCUUUAAACCAAUAGAUUGCAUCGGUUUAAAAGGCAAGACCGUCAAAUUGCGGGAAAGGGGUCAACAGCCGUUCAGUACCAAGUCUCAGGGGAAACUUUGAGAUGGCCUUGCAAAGGGUAUGGUAAUAAGCUGACGGACAUGGUCCUAACCACGCAGCCAAGUCCUAAGUCAACAGAUCUUCUGUUGAUAUGGAUGCAGUUCACAGACUAAAUGUCGGUCGGGGAAGAUGUAUUCUUCUCAUAAGAUAUAGUCGGACCUCUCCUUAAUGGGAGCUAGCGGAUGAAGUGAUGCAACACUGGAGCCGCUGGGAACUAAUUUGUAUGCGAAAGUAUAUUGAUUAGUUUUGGAGUACUCGUGGUCG
Outline: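 Six replicate transformations of E. coli BL21(DE3) with a pET-22b(+) library were grown overnight at 37°C or 30°C. The library randomised all eight P1ex-region intron nucleotides, the intron lying in the knt kanamycin-resistance gene, and plates were LB agar with or without 25 μg/mL kanamycin plus 100 μg/mL carbenicillin, 50 μM IPTG and 0.2% rhamnose. Pooled colonies were amplicon-sequenced on an Illumina HiSeq 2500, and fitness is the DiMSum error-weighted combination of wild-type-normalised replicate fold changes, kanamycin versus none.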

Sequence	self-splicing fitness (ln) (30 °C)	self-splicing fitness (ln) (37 °C)
CCGCAGCAAUAUUACGUUUU	-3.13 ± 0.13	-3.26 ± 0.2
CCGGAGCAAUAUUACGAAGC	–	-2.8 ± 0.36
CCGGAGCAAUAUUACGACUG	-0.64 ± 0.14	-0.428 ± 0.22
CCGGAGCAAUAUUACGAGUA	-3.34 ± 0.27	-2 ± 0.26
CCGGAGCAAUAUUACGAUCG	-0.502 ± 0.12	0.299 ± 0.16
CCGGAGCAAUAUUACGCAAA	–	-2.55 ± 0.33
CCGGAGCAAUAUUACGCCGG	–	-3.09 ± 0.28
CCGGAGCAAUAUUACGCCUA	-2.12 ± 0.26	-2.59 ± 0.29
CCGGAGCAAUAUUACGCGAA	-3.59 ± 0.42	-2.41 ± 0.36
CCGGAGCAAUAUUACGCGGC	-3.5 ± 0.31	-2.33 ± 0.26
CCGGAGCAAUAUUACGCUGC	–	-2.04 ± 0.38
CCGGAGCAAUAUUACGCUUC	-2.55 ± 0.24	-0.412 ± 0.19
CCGGAGCAAUAUUACGGAAU	-2.95 ± 0.26	-2.96 ± 0.25
CCGGAGCAAUAUUACGGACU	–	-1.56 ± 0.28
CCGGAGCAAUAUUACGGAUG	-2.78 ± 0.22	-1.92 ± 0.23
CCGGAGCAAUAUUACGGCGU	-4.4 ± 0.46	-2.84 ± 0.26
CCGGAGCAAUAUUACGGCUA	–	-0.58 ± 0.2
CCGGAGCAAUAUUACGGCUC	–	-2.08 ± 0.37
CCGGAGCAAUAUUACGGGUG	-1.61 ± 0.093	-1.09 ± 0.1
CCGGAGCAAUAUUACGGUGA	-3.8 ± 0.31	-2.29 ± 0.23
CCGGAGCAAUAUUACGUACC	–	-0.504 ± 0.41
CCGGAGCAAUAUUACGUAUC	–	-2.58 ± 0.29
CCGGAGCAAUAUUACGUAUU	–	-1.05 ± 0.21
CCGGAGCAAUAUUACGUCAU	-4 ± 0.24	-2.48 ± 0.21
CCGGAGCAAUAUUACGUCUA	–	-1.85 ± 0.33

Sequence	self-splicing fitness (ln) (30 °C)	self-splicing fitness (ln) (37 °C)
CCGGAGCAAUAUUACGUGUA	-2.99 ± 0.2	-2.61 ± 0.25
CCGUAGCAAUAUUACGAACU	-3.64 ± 0.47	-1.14 ± 0.28
CCGUAGCAAUAUUACGACGC	–	-3.08 ± 0.38
CCGUAGCAAUAUUACGACGU	-0.571 ± 0.075	-0.205 ± 0.088
CCGUAGCAAUAUUACGAUCA	-2.86 ± 0.32	-2.34 ± 0.35
CCGUAGCAAUAUUACGAUGC	-4.08 ± 0.36	-1.39 ± 0.23
CCGUAGCAAUAUUACGCACG	-2.02 ± 0.096	-1.53 ± 0.13
CCGUAGCAAUAUUACGCCAC	-1.95 ± 0.22	-1.78 ± 0.33
CCGUAGCAAUAUUACGCGUU	-4.15 ± 0.39	-2.86 ± 0.31
CCGUAGCAAUAUUACGGAAG	-1.47 ± 0.17	-2.34 ± 0.41
CCGUAGCAAUAUUACGGAAU	-3.73 ± 0.3	-1.92 ± 0.32
CCGUAGCAAUAUUACGGACU	-4.02 ± 0.22	-2.54 ± 0.2
CCGUAGCAAUAUUACGGAGG	-3.6 ± 0.17	-3.34 ± 0.25
CCGUAGCAAUAUUACGUAUG	-0.772 ± 0.082	0.203 ± 0.12
CCGUAGCAAUAUUACGUCCA	-2.27 ± 0.28	-3.26 ± 0.28
CCGUAGCAAUAUUACGUCGU	-3.2 ± 0.18	-1.25 ± 0.16
CCGUAGCAAUAUUACGUGCA	-3.06 ± 0.21	-2.88 ± 0.15
CCGUAGCAAUAUUACGUGCC	-4.11 ± 0.47	-2.33 ± 0.28
CCGUAGCAAUAUUACGUUGA	-2.67 ± 0.33	-3.13 ± 0.29
CCUAAGCAAUAUUACGACAG	-0.604 ± 0.081	-1 ± 0.11
CCUAAGCAAUAUUACGACCG	-1.24 ± 0.14	-0.121 ± 0.13
CCUAAGCAAUAUUACGAUCG	-0.805 ± 0.15	-0.185 ± 0.17
CCUAAGCAAUAUUACGAUUA	-3.04 ± 0.19	-2.62 ± 0.22
CCUAAGCAAUAUUACGCAUA	-4.08 ± 0.28	-2.77 ± 0.27
CCUAAGCAAUAUUACGCAUC	-2.22 ± 0.13	-1.91 ± 0.13

Sequence	self-splicing fitness (ln) (30 °C)	self-splicing fitness (ln) (37 °C)
CCUAAGCAAUAUUACGCCGU	-2.92 ± 0.19	-3.22 ± 0.29
CCUAAGCAAUAUUACGCGAA	-2.23 ± 0.22	-2.61 ± 0.29
CCUAAGCAAUAUUACGCGAC	-2.41 ± 0.3	-3.61 ± 0.39
CCUAAGCAAUAUUACGCUGA	-2.63 ± 0.21	-1.96 ± 0.32
CCUAAGCAAUAUUACGGCAC	-3.72 ± 0.25	-2.62 ± 0.28
CCUAAGCAAUAUUACGGUUC	-3.88 ± 0.23	-2.59 ± 0.22
CCUAAGCAAUAUUACGUAGA	-1.33 ± 0.08	-0.523 ± 0.1
CCUAAGCAAUAUUACGUAGC	-4.03 ± 0.34	-2.21 ± 0.23
CCUAAGCAAUAUUACGUAUA	-3 ± 0.15	-2.67 ± 0.17
CCUAAGCAAUAUUACGUCCU	-3.74 ± 0.33	-2.04 ± 0.24
CCUAAGCAAUAUUACGUUCC	-3.6 ± 0.3	-1.8 ± 0.34
CCUAAGCAAUAUUACGUUGG	-3.45 ± 0.27	-2.96 ± 0.24
CCUCAGCAAUAUUACGAAAU	-3.99 ± 0.28	-2.15 ± 0.34
CCUCAGCAAUAUUACGAAGA	-3.71 ± 0.3	-2.31 ± 0.25
CCUCAGCAAUAUUACGACAC	-4.04 ± 0.28	-2.5 ± 0.29
CCUCAGCAAUAUUACGACUA	-3.2 ± 0.43	-3.06 ± 0.32
CCUCAGCAAUAUUACGAGAC	-3.31 ± 0.32	-2.88 ± 0.35
CCUCAGCAAUAUUACGAUAC	-3.21 ± 0.26	-3.08 ± 0.47
CCUCAGCAAUAUUACGCAGC	-3.42 ± 0.14	-2.49 ± 0.17
CCUCAGCAAUAUUACGCAGG	-3.84 ± 0.25	-2.5 ± 0.3
CCUCAGCAAUAUUACGCCGG	-3.32 ± 0.21	-0.587 ± 0.15
CCUCAGCAAUAUUACGCCGU	-3.05 ± 0.23	-2.08 ± 0.25
CCUCAGCAAUAUUACGCGAG	-2.89 ± 0.1	-1.76 ± 0.11
CCUCAGCAAUAUUACGCGUA	-2.71 ± 0.21	-3.37 ± 0.28
CCUCAGCAAUAUUACGGACA	-3.54 ± 0.19	-3.15 ± 0.26

Sequence	self-splicing fitness (ln) (30 °C)	self-splicing fitness (ln) (37 °C)
CCUCAGCAAUAUUACGGAUU	-4.3 ± 0.39	-2.56 ± 0.22
CCUCAGCAAUAUUACGGUAC	-4.96 ± 0.32	-2.26 ± 0.26
CCUCAGCAAUAUUACGUAAG	-0.219 ± 0.059	0.292 ± 0.082
CCUCAGCAAUAUUACGUACA	-3.73 ± 0.29	-2.78 ± 0.34
CCUCAGCAAUAUUACGUACC	-4.27 ± 0.25	-3.42 ± 0.39
CCUCAGCAAUAUUACGUGAA	-3.66 ± 0.2	-2.22 ± 0.2
CCUCAGCAAUAUUACGUGUC	-3.35 ± 0.13	-2.48 ± 0.2
CCUGAGCAAUAUUACGACGU	-2.28 ± 0.14	-0.0399 ± 0.14
CCUGAGCAAUAUUACGAGCU	–	-1.95 ± 0.42
CCUGAGCAAUAUUACGAGUC	–	-2.36 ± 0.34
CCUGAGCAAUAUUACGAGUG	-1.44 ± 0.097	-0.572 ± 0.12
CCUGAGCAAUAUUACGCAUG	-4.37 ± 0.34	-2.27 ± 0.28
CCUGAGCAAUAUUACGCGGC	-3.57 ± 0.2	-2.55 ± 0.22
CCUGAGCAAUAUUACGCGGG	-3.41 ± 0.26	-2.22 ± 0.34
CCUGAGCAAUAUUACGCUAA	-3.04 ± 0.2	-2.88 ± 0.25
CCUGAGCAAUAUUACGCUUG	–	-1.23 ± 0.28
CCUGAGCAAUAUUACGGAAA	-3.53 ± 0.35	-1.92 ± 0.28
CCUGAGCAAUAUUACGGCAG	-2.92 ± 0.34	-0.802 ± 0.17
CCUGAGCAAUAUUACGGCGA	-3.62 ± 0.46	-2.62 ± 0.38
CCUGAGCAAUAUUACGGGUA	-2.9 ± 0.27	-2.07 ± 0.31
CCUGAGCAAUAUUACGGGUG	-2.65 ± 0.12	-1.81 ± 0.14
CCUGAGCAAUAUUACGGUUC	-3.21 ± 0.23	-3.06 ± 0.4
CCUUAGCAAUAUUACGAAGU	-2.21 ± 0.15	-1.93 ± 0.12
CCUUAGCAAUAUUACGACUU	-3.8 ± 0.35	-2.73 ± 0.32
CCUUAGCAAUAUUACGAGAC	–	-1.83 ± 0.25
